Key:
[1] = molecular target: GFP-Spd2 (Drosophila melanogaster); test: co-IP; anti-GFP immunoprecipitation with GFP-Trap-A beads from D. mel-2 cell lysates, 2 h at 4 °C; 10 mM Tris-HCl pH 7.5, 150 mM NaCl, 0.5 mM EDTA, NP40; immunoblot; band intensities quantified in ImageJ
[2] = molecular target: GFP-Cdc27 (Drosophila melanogaster); test: as above

precipitation efficiency (percent of input co-precipitated) [1] [%] | co-IP efficiency [2] | Molecule
14.5 |  | Fzr (endogenous) (from UniProt O18402 1-478) (natural protein)
2.43 |  | Fzy (endogenous) (natural protein) MSQFNFVSDLQNALIMDGETRGPAPRWKKKLEASLNGSVNTTRSVLSVSYNTSFSGVQAPTKTPGKSSEGKTKKSNTTPSKTPGGGDRFIPNRAATNFELAHFLVNKDSGDKSDEENDKATSSNSNESNVQASAHKGDRQKLISEVAQVGDSKGGRILCYQNKAPAAPETHNNPLKVVYSIKTPISTKSGSRYIPTTSERILDAPDFINDYYLNLMDWSADNIVAVALGSCVYLWNAQTGNIEQLTEFEEGDYAGSLSWIQEGQILAIGNSTGAVELWDCSKVKRLRVMDGHSARVGSLAWNSFLVSSGSRDGTIVHHDVRAREHKLSTLSGHTQEVCGLKWSTDFKYLASGGNDNLVNVWSAASGGVGTATDPLHKFNDHQAAVRALAWCPWQPSTLASGGGTADRCIKFWNVNNGTLMKSVDSKSQVCSLLFSRHYKELISAHGFANNQLTIWKYPTMVKQADLTGHTSRVLQMAMSPDGSTVISAGADETLRLWNCFAPDPLASKKAVSTSKGKQSVFRQSIR

Second part, the molecule before the results:

Molecule | precipitation efficiency (percent of input co-precipitated) [1] [%] | co-IP efficiency [2]
Spd2 (endogenous) (from UniProt Q9VV79 1-1146) (natural protein) |  | 2.7e-07
Cdc27 (endogenous) (natural protein) | 4.55 | 

From PMC5007356
